Experiment: label from the status in PepcDB records

Sequence | protein production
MTQNVLNERPAGQKPVALSSFRGCINGLYGDVLQGWAIDITQPDQRPVIEVFVDGASVALARADQHEPNAPHGDHFHGFTVQLRQSLLADANRITAQIANTGIHLEGEIELPSQPPQETAAVASQVWHTGGLRVGGWSWDPQAPHRHVVVTLREGSRVVAQVTCNTHHQALAYRATSDHGFAIDLPWELADGKLHVIEVTNDLGQSLPGSPIRLRCRPEGLEGLLHQLELKPDAAMQALVAEVAKEQSSRLPKSAGWQHYPRWYDAFQKREPIAAIPSRFRPGLLLLSEGDATLEKISLDSLGDDAESVHQLAKAAPADLLPAVEQLLAAGCDSIIQIAAGDKLAPRAMAQLRNLLEEGCAWAYADCDRDGPQGQRSQPWFKPVWDIDLFIGADIFSTGAIFSAAIVKEALALLKAGKKQSAINRHDLIAGIALATELNGRSVTHLPRVLYHRSSDTCTSPEQAAPSKQRKDAVAWLCQGLAPGAHVSAVPDYPALLRAHWPLPEQLPRVSLIVPTRDQYKLLHACIEGLLNNTDYPDLEIIVVDNQSTDPQTLAYLAELKQRGVKILAHPHPFNYSTINNRAASAATGELIGLVNNDIEIIESGWLKEMVSQALRPGIGAVGAKLLWPNRMVQHGGVVVGVNGLAAHAGNTLEQRDAGYLGMNQVTRRQSAVTAACLLLRKSLFDSIQGLDERAFPVAFNDVDLCLRIHELGLRNVWTAFAQLIHAESASRGKDISPEKMARAQREQQLFTERWSVSYRDPYYHPALSLDYLTGPYGGLSLPPEPEYCAPRKLASSETHGHIYLADPS | failed
MTQRDTGRLDAIVLAAGRGVRFGGGKLTALLDGDPLVAAALLTAFLAPARRVVVAVGPEPDVRQAVEATATRLLARERLVLVPIDDPSAGMGASLAAAARSLPGDTDGVFVFLGDMPRIDPATPRHLAAALRDPGDIVAPTYLGRRGHPVLFGARWAPVLGALSGDEGARAIVDKAGESLVLVPVDDPGVHLDVDRPSDLARVQTDRRTLLEHHHHHH | not failed
MTQRRATRRRFLMGCSAIASVGLAGCTGGDESTATDSTPSPTDDGDAEPTTTTDEPPATDTATATPDQEAVETLVSVGGDRVPENMALGPDGGLYFGITAGEVRRVPAAETGATGLSLEDTEQIATLPGAIGVEAAPDGTVYVAVATQDDQAGVWEIPLDGDAAQLVEMGGFPNDIHYDADQERLLVTESQNGVVYAVTTDGERSTWLDDDRLETESFGANGITRDADGDIFVAVTRAPEETGRLLRVPVESDGAAGEPSMFFEGGAIFGADGITSRDGDIYVAANSQNRVVRVTADGTTDVVATADNGLVFPSDVLFRTGDQQESLFICNFANQSPEDGAILRTSVPR | failed
MTQSALHTEFGGIAALRDALARRQVSAVELAQSGLDAAQAASGLNAFLHIDPELTLAQARAADAALAAGTAGPLAGIPIAHKDAFVTRGWRTTAGSKMLAGYASPFDATVVERLAEAGAVSLGKLNCDEFAMGSGNENSAYGPVRNPWDTRAVPGGSSGGSAAAVAARLVAAATGTDTGGSVRQPAALCGVSGIKPTYGTVSRYGMIAFGSSLDQAGPLAPSSRDLLELLDVMTGFDPRDATSLQACDGQANESGRVRRGHDAAQAGYDAAGSQPLKGLRIGVPQEYFGAGLAPDVAAAVEAALAQFEQLGAVRVPVSLPRTELAIPAYYVIAPAEASSNLARYDGVRYGHRAAQYGDLNEMISRSRAEGFGDEVKRRILIGTYVLSHGYYDAYYLQAQRLRRLIAQDFQRAFADQCDVIMGPVSPTVAKNIGDNRDDPTADWLADVYTLGVSLAGLPAMSVPCGFGGQDGRRPVGLQIIGNYFDEGRLLALADRYQQVTDWHQRAPVSQDA | failed
MTQTGSARFEGDSWDLASSVGLTATMVAAARAVAGRAPGALVNDQFAEPLVRAVGVDFFVRMASGELDPDELAEDEANGLRRFADAMAIRTHYFDNFFLDATRAGIRQAVILASGLDSRAYRLRWPAGTIVFEVDQPQVIDFKTTTLAGLGAAPTTDRRTVAVDLRDDWPTALQKAGFDNAQRTAWIAEGLLGYLSAEAQDRLLDQITAQSVPGSQFATEVLRDINRLNEEELRGRMRRLAERFRRHGLDLDMSGLVYFGDRTDARTYLADHGWRTASASTTDLLAEHGLPPIDGDDAPFGEVIYVSAELKQKHQDTR | not failed
MTQVIIDGDACPVTNSIIELTKGTGIFVTVVRSFSHFSTVIQPEHVNIIYVDDGPDAVDYRIVKLVHSDDLVVTQDYGLASLLLNKAKIVMHHKGLEHHHHHH | failed
MTRAKQIILWASLSAMPLIAQASERSDDEIKALVYQAILERPEIILQAVEQLQQAEEAAQAASAHAALTENRDSLFNDPNAPVLGNPEGDVTVVEFFDYNCPYCRRAMAEVQGLVDADPNVRLVYREWPILGEGSDFAARAALAARQQGKYEAFHWALMGMSGKANETGVLRIAREVGLDTEQLQRDMEAPEVTAHIAQSMALAQKLGFNGTPSFVVEDALVPGFVEQSQLQDAVDRARKAAAK | failed
MTRAPSGGTEAPPGRTARRAGWDGRCQAAGHRSRRGGLSTGGDEVSTSDSDDAGLRSFLADPAHLTLDLRTATARCVKALGLRHAVVYLVDLQQRHLVPQTAVAPSVPVDGSPAGWAYRTQSLRVEESGTGGGITAWFPLLDGAERLGVLALCETALTASSLTRGRALASLLAMVITSKRLYEDSFVRRTRTERMTLPAEMLRALLPPRTIGNGNVVSTAVLEPAYEIGGDAFDHALTETTLHVAVLDAMGHDLASGLTTTVSLAACRNARRTGADLPELVRSVDEALSSWLPDKFCTSVIAQLDLVTGVLRWANCGHPAPILIRDQRLVIDAMERDADPPMGMPSLLSPHARRTHEISLEPGDRVLMYTDGVVEARTREAKLLGLERFADYVIRATAGGELAPESLRRLIHSILAMQEGRLRDDATLLMFEWRPPS | failed
MTRKKLNLSYITNESMRKATFNKRKKGLVKKIHELSVLCGIEACAVIYSPFNSNPEVWPSNSEVKNVMENFEMLTKLEQEKKMVSHEGFIRQNISKTMESNNKKMIDNAERTMKEAMFQLLSGKGEKLNLTDRNREDLCKYIDQYLKELYHHKNKTINQSHIEPGESSGATNAMTPTSVVENPNFNHLSHNQYQYQQQFGYPILVQDGIYNPSQIQNQHEEWLDDHMMNHSKEISHPLMDDNNFYYQQP | not failed
MTRLIQAIFILGFAAFVACTPKSAKSFAKAEVQYKQAEYQHAIENYQQSLSEGGDVAQCNYYIAESYRRSNRIQEAEPFYKKAIEAGIKDEEAHFFYANALKSVGNYEGAATQYKQYIKTGSNFDYINRAKKELENLKALQEVVEKETYYKVENIGQINSPEAEYAPYIYKNQLYFTSSRDAEKMHAATGTGFTNIHEYVFDGVEKFSGQSVPLSNAINTDGAHEASCILTKDGKTMIFARGNSGAKKGPQDVDLFKTTLQSDGKWSEPVMLAINDPAAWDACPALSLDEKTLYFASNREAEGALGNVDIYKATLDEKGEWSNPVNIGAPINTRGNDMYPSFNKDGKFYFASDGHPSLGSLDIFYVDPKESKIVNMGKPINTSYDDFGLVWKDSLEGYFASNRIDNGAKGDDDIYFVRNTFWDRRAKYYVDGTSFAKSKKNPKAILPNSIIYLLSCKGDTLKSIVSDTEGKFEFELKPDTCYYLAAHSDKYFAMPKSEWTPVKIATVPIKDLDIGDNSIKKKAEVMLVKKERIVIVRNILYDYDKWDIRPDAAVELDTMVMLMNANPEIQIELGSHTDERGSAEYNRVLAQKRAQAAVDYIIAHGISKDRIIAKGYGEDEPAIRNAKTEADHQTNRRTTFKVLNHFSDELEIKSGE | failed
MTRQGWLVPCLSHGKDDQLQDELSELSKAYRKKFQTDLHTKSGDIIDPSGEFLYVYLDEENYRICRQSMVLVSNAPDGLIATTLEPYSDSYTFRQVREQLQAFSGDGGRINYSRNEHSSSYFLTIQASNEFKHVGAVRNTFGQSKDIWKRRMPDASQPLDYHLIAVGCSAFLPEAALDDVESDGAVLEHHHHHH | not failed
MTRSKKFIIMITTVIVIIAFIFLALFAWKIYAERNYNNTNIREAAQFNPLIRETDYYVQVSDPLKKNGKNQVGAYTYMTDGFDKDGVGHTVTFNGMKKLKKGAYLKVSLFLGEAKSYNEISKDKVPHKPLKKLEMQQLEHHHHHH | not failed
MTRSVWLKADSEVGDWETRKRRITAGIEAGVDWVLVDEEDVDRVSELGEINIAAFTNGDVHVMEAEAEDSEADATIVGKDGEGDGTVDLPSDFSGSADLSTLRQNGAAPDGGYVRIFDEDYEAFAEAVAAEADFTIVIGENWQIIPLENLIARVGEETDLIAGVRTAEDARTAYETLELGADGVLLDTDEVDEIRKTVEVRDEMGRESLDLEYAEVTAIEQTGSADRVCIDTGSLMEHDEGMLVGSMARGLFFVHAETAESPYVASRPFRVNAGAVHAYVRTPDGGTKYLSELQSGDEVQIVDANGRTREAIVGRAKIEKRPMFRVQAETEDSDRIETLLQNAETIKVHTQDGRTAVTDLEPGDEILIHHEDTATHFGERIEESIIEK | failed
MTRTFDPIREMDRLLSDVTRTPATVAVPMDLYREGDDYTVAVDLPGVDPASIDIDVDDRTLTIRAERAAKVAKEAQWLSRERAMGTFARQLTLGHGLATDRITAEYTDGVLTLTIPVAETAKPRKVEVRHGSTTIDAMTDQAQVGSGEHQEQ | failed
MTRTRVIAALVMAPVAMCSILFLPTAWLASLTAIIFLWGLWEWMKLSQVEDTLVRTVLLTLNLLLMVLLVWVSAHSLVLFQIATLIGIAWWILALLWLRFLGFCADPNQRTAKIVKVTAGTLAVIPAWSALVLLHSGDKPGSTFPESLHAHLWLLTAQIMIWAADSGAYFSGRLFGKHKLAPQISPNKTVEGLLGGILTGLAVAAGFGLLNGVTMAQFPSLLLVSFVAILASVIGDLFESLLKRHAGIKDSGSMIPGHGGVLDRIDSTLAALPVFALGKDIFGF | failed
MTRTTAVGFDRVTKGYGDVRAVDGLTLALHPGETVALLGPNGAGKSTTLDLLLGLRRPDAGTVHVFGGEPREAVVAGRVGAMLQSGGLMDEVTVAELVRLGCALHPRAYPAADVLARAGLTKIADRRVDKLSGGQAQRVRFALATAGDSDLIVLDEPTTGMDVTARQAFWATMREQADQGRTVLFATHYLEEADAIADRVLVLHRGRLLADGTAAEIKARAGTRRISFDLDGGPDASPDASPDGSRNGTVDEATLRALPHLTALDVSGRTVRIQSADADATVYALYGLGLYPRNLEVAGLGLEQAFVALTAAEEAKQP | failed
MTRVTTTGIPMNNVPSGRHHVSTSRNLFAWFLFALLLLSLYLSYQLVAPFLHTIILSSVFSASIYPFYRRLTSYLGERPVPAALLVLAGVVILVVIPVVVFVIGLIPQAVASVSAITRWLAGHGGLDGLNDAALAPYIAWVRENLPFIDPAQLDVRSSLVQASRAAGQTLLQWGTYVLGNTLLLFGHFLLLLLCMFFMLKDGAWMVQRVRYLSPLRIDQQDRIILELRRVGRSVLVGGLLVAVIQGLLGGVALAAVGIPALFWGTLMAFASLVPVVGTGLVWVPAVCYLLLTSQWESALFLSLWCGIVVVGADSILRPYFMRGGVGMPVFFIFLSILGGVKAFGMLGILDGPLILSFTVVMLSLYGDEYRDILDAGSLAHSRGAECEKGEASEEGPDGT | failed
MTRYLALDAFRGITIALMILVNTPGTWSHVYAPLLHAEWDGATPTDLVFPFFLFIIGSAMFFSFKKSNFSASPEQFRKIIKRGFIMFFIGFMLNVIPFTVNAEDWRIMGILQRIGIAYTVAACLVLTLNRTGVFIASAVILLAYWALLLSMGEGALTIEGNIIRQLDLAVFGANHMYTMRGVAFEPEGLLSTIPAIVNMLLGFELTRYLTSIEDKRSSVIKLTLIGGLAVGFGALWGLVLPINKSLWTPSYVIYSTGFACLLLAAFIWLIDIMKQVKLAEPLLVYGTNPLFVYVLSFLVVTMYLNINVGDVSMYAWLYKQLSGVFTPKLASFIFAFSHVAFFWYVSLKLYQRKIFIKI | failed
MTSGTSVINDKVLQYETFISEVLRRDLQKVLEQRDAVYEKIAQYLQLKNTIQSIQESGSKELKTDVDLGCNFYVQAHVPDASRIYVAVGYGFFVEFTHAEALKFIEKKTNQLTEYTEVLTKDAAKIKANIRMVLEGLRELQGLKDLPEDRRREVF | not failed
